# In PMC6555819, “Comprehensive study of nuclear receptor DNA binding provides a revised framework for understanding receptor specificity”:
# Biological target: PXR:RXRa (Homo sapiens, UniProt O75469;P19793 full;full)
# Assay: no ligand; PBM; 270 nM : 90 nM RXRa; PBS pH 7.4, 2% milk, 0.02% Triton X-100, 1 mM DTT, BSA, 0.4 mg/ml salmon testes DNA
# Conditions: tags: His kept;His cleaved; copies: 1;1; label: surface-attached array probe
# Method in brief: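 On custom Agilent 4×180K arrays, double-stranded probes with 34-nt variable regions carried direct-repeat seeds, single-nucleotide variants, half-site ablations or random human genomic background. Ligand-free nuclear receptor dimers were applied for 1 h, and binding was read with antibodies against each partner (one per run). Binding z-scores come from regression-normalized fluorescence, with the random background probes as reference.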
# Chain of PXR:RXRa (O75469 whole entry, chain 1 of 2): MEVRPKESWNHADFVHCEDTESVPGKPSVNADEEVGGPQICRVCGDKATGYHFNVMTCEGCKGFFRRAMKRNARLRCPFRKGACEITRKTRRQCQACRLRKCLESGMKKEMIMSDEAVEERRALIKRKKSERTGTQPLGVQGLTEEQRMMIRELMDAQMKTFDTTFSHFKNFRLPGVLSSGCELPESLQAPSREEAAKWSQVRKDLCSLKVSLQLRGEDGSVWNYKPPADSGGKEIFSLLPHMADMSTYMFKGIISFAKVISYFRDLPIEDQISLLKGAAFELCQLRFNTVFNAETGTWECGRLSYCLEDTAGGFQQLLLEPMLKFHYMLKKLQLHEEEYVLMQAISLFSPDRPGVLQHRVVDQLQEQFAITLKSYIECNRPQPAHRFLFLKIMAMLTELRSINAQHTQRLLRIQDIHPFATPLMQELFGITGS
# Chain of PXR:RXRa (P19793 whole entry, chain 2 of 2): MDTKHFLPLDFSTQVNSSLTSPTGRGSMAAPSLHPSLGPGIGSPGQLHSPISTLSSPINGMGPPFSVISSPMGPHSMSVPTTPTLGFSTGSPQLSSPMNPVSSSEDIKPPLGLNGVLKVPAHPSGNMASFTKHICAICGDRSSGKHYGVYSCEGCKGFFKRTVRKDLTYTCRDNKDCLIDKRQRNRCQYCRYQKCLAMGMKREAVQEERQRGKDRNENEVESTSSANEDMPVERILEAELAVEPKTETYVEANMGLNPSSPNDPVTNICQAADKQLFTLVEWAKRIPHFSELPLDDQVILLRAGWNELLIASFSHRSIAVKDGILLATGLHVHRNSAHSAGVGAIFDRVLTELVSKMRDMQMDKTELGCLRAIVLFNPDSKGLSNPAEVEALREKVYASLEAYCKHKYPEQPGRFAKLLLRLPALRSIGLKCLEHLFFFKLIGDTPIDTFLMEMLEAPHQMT
row,Binder,binding signal
1,NRC3_wobSeed65_DR2_T12A_o1 (dsDNA) DNA 1: GCATATGTAGGATATCGGGTCATTCAGTTTGCGCATGCGATTGACAGCGTAGAATGAAGG DNA 2: CCTTCATTCTACGCTGTCAATCGCATGCGCAAACTGAATGACCCGATATCCTACATATGC,3.03 PBM z-score against 500 random probes
2,NRC3_wobSeed2_DR0_C19A_o1 (dsDNA) DNA 1: GCCCTAGTTGGTCAAGGTAACACACGCTATAGGTACGCGATTGACAGCGTAGAATGAAGG DNA 2: CCTTCATTCTACGCTGTCAATCGCGTACCTATAGCGTGTGTTACCTTGACCAACTAGGGC,0.48 PBM z-score against 500 random probes
3,NRC3_wobSeed117_DR4_A9C_o1 (dsDNA) DNA 1: GCCGTCAACGTTCAACTAAGGTAACGTAAAGCACGCGCGATTGACAGCGTAGAATGAAGG DNA 2: CCTTCATTCTACGCTGTCAATCGCGCGTGCTTTACGTTACCTTAGTTGAACGTTGACGGC,0.48 PBM z-score against 500 random probes
4,NRC3_wobSeed53_DR2_T12C_o1 (dsDNA) DNA 1: GCCCTTACGGGCCACGAGGTTATAGCACGACGAGCGGCGATTGACAGCGTAGAATGAAGG DNA 2: CCTTCATTCTACGCTGTCAATCGCCGCTCGTCGTGCTATAACCTCGTGGCCCGTAAGGGC,0.44 PBM z-score against 500 random probes
5,NRC3_wobSeed99_DR4_C23G_o1 (dsDNA) DNA 1: GCTCTCGGAGGACACGAAAGGTGAGAGCTCGACATCGCGATTGACAGCGTAGAATGAAGG DNA 2: CCTTCATTCTACGCTGTCAATCGCGATGTCGAGCTCTCACCTTTCGTGTCCTCCGAGAGC,0.4 PBM z-score against 500 random probes
6,NRC3_wobSeed137_DR5_G21A_o1 (dsDNA) DNA 1: GCATATGTAGGTTACATCCGAGTCATTCAGGCTATGGCGATTGACAGCGTAGAATGAAGG DNA 2: CCTTCATTCTACGCTGTCAATCGCCATAGCCTGAATGACTCGGATGTAACCTACATATGC,0.38 PBM z-score against 500 random probes
7,NRC3_wobSeed58_DR2_T12G_o1 (dsDNA) DNA 1: GCATCGAAAGGGCGTGAGGTGAGTATACAGAAAGGCGCGATTGACAGCGTAGAATGAAGG DNA 2: CCTTCATTCTACGCTGTCAATCGCGCCTTTCTGTATACTCACCTCACGCCCTTTCGATGC,0.34 PBM z-score against 500 random probes
8,NRC3_wobSeed72_DR2_G16T_o1 (dsDNA) DNA 1: GCTCGAGTAGGTTACTGGGGCATTCAGGGATGAAGAGCGATTGACAGCGTAGAATGAAGG DNA 2: CCTTCATTCTACGCTGTCAATCGCTCTTCATCCCTGAATGCCCCAGTAACCTACTCGAGC,0.31 PBM z-score against 500 random probes
9,NRC3_wobSeed66_DR2_A14G_o1 (dsDNA) DNA 1: GCAATACAGGGTCGCTAGGCCAGAGTAGGTACGAATGCGATTGACAGCGTAGAATGAAGG DNA 2: CCTTCATTCTACGCTGTCAATCGCATTCGTACCTACTCTGGCCTAGCGACCCTGTATTGC,0.28 PBM z-score against 500 random probes
10,NRC3_wobSeed72_DR2_G17C_o1 (dsDNA) DNA 1: GCTCGAGTAGGTTACGCGGGCATTCAGGGATGAAGAGCGATTGACAGCGTAGAATGAAGG DNA 2: CCTTCATTCTACGCTGTCAATCGCTCTTCATCCCTGAATGCCCGCGTAACCTACTCGAGC,0.24 PBM z-score against 500 random probes
11,NRC3_wobSeed93_DR3_A14T_o1 (dsDNA) DNA 1: GCAGTCAAAGTTCTTCTAGGTAACGTAAGATATGCTGCGATTGACAGCGTAGAATGAAGG DNA 2: CCTTCATTCTACGCTGTCAATCGCAGCATATCTTACGTTACCTAGAAGAACTTTGACTGC,0.13 PBM z-score against 500 random probes
12,NRC3_wobSeed18_DR0_T12G_o1 (dsDNA) DNA 1: GCGATACAGGGGCAAGGCCAGAGTACGCGTATTGATGCGATTGACAGCGTAGAATGAAGG DNA 2: CCTTCATTCTACGCTGTCAATCGCATCAATACGCGTACTCTGGCCTTGCCCCTGTATCGC,-0.01 PBM z-score against 500 random probes
13,NRC3_wobSeed28_DR1_A21T_o1 (dsDNA) DNA 1: GCCCTACTGGGCCAAAGGTCTTTGATTCCAATGCTCGCGATTGACAGCGTAGAATGAAGG DNA 2: CCTTCATTCTACGCTGTCAATCGCGAGCATTGGAATCAAAGACCTTTGGCCCAGTAGGGC,-0.05 PBM z-score against 500 random probes
14,NRC3_wobSeed113_DR4_G20C_o1 (dsDNA) DNA 1: GCATATGTAGGTTAGCTGGCGTCATTCAGACTAGGCGCGATTGACAGCGTAGAATGAAGG DNA 2: CCTTCATTCTACGCTGTCAATCGCGCCTAGTCTGAATGACGCCAGCTAACCTACATATGC,-0.13 PBM z-score against 500 random probes
15,NRC3_random_hg19_42_o1 (dsDNA) DNA 1: GCTTTGTGTGGGCTGTCATTGGATGCTCTGGTCATGGCGATTGACAGCGTAGAATGAAGG DNA 2: CCTTCATTCTACGCTGTCAATCGCCATGACCAGAGCATCCAATGACAGCCCACACAAAGC,0.44 PBM z-score against 500 random probes
16,NRC3_random_hg19_170_o1 (dsDNA) DNA 1: GCCTTGCATTGTGGTTTGGATTTGCATTTCCCTAAAGCGATTGACAGCGTAGAATGAAGG DNA 2: CCTTCATTCTACGCTGTCAATCGCTTTAGGGAAATGCAAATCCAAACCACAATGCAAGGC,0.34 PBM z-score against 500 random probes
17,NRC3_random_hg19_208_o1 (dsDNA) DNA 1: GCAAGAGAGAGACACAATGGCTAAAGAAGGAAGAGTGCGATTGACAGCGTAGAATGAAGG DNA 2: CCTTCATTCTACGCTGTCAATCGCACTCTTCCTTCTTTAGCCATTGTGTCTCTCTCTTGC,0.26 PBM z-score against 500 random probes
18,NRC3_random_hg19_343_o1 (dsDNA) DNA 1: GCCCTGGAGTGTCACTTAGCCACATTCTATTGGCCAGCGATTGACAGCGTAGAATGAAGG DNA 2: CCTTCATTCTACGCTGTCAATCGCTGGCCAATAGAATGTGGCTAAGTGACACTCCAGGGC,0.14 PBM z-score against 500 random probes
19,NRC3_random_hg19_329_o1 (dsDNA) DNA 1: GCAGGGATGAATAGATCGAAGTTACTGCCCATTCAAGCGATTGACAGCGTAGAATGAAGG DNA 2: CCTTCATTCTACGCTGTCAATCGCTTGAATGGGCAGTAACTTCGATCTATTCATCCCTGC,0.08 PBM z-score against 500 random probes
20,NRC3_random_hg19_462_o1 (dsDNA) DNA 1: GCCTGCTGCTTTCCTGATTACTGTAGCATCAGGTACGCGATTGACAGCGTAGAATGAAGG DNA 2: CCTTCATTCTACGCTGTCAATCGCGTACCTGATGCTACAGTAATCAGGAAAGCAGCAGGC,-0.18 PBM z-score against 500 random probes
21,NRC3_random_hg19_157_o1 (dsDNA) DNA 1: GCCCAAGATCTTGCCACTGCACTCCAGCCTGGATGAGCGATTGACAGCGTAGAATGAAGG DNA 2: CCTTCATTCTACGCTGTCAATCGCTCATCCAGGCTGGAGTGCAGTGGCAAGATCTTGGGC,-0.24 PBM z-score against 500 random probes
22,NRC3_random_hg19_338_o1 (dsDNA) DNA 1: GCACACAGAGAAACTCTTGCCAGTAGCAGTAGTACCGCGATTGACAGCGTAGAATGAAGG DNA 2: CCTTCATTCTACGCTGTCAATCGCGGTACTACTGCTACTGGCAAGAGTTTCTCTGTGTGC,-0.32 PBM z-score against 500 random probes
23,NRC3_random_hg19_246_o1 (dsDNA) DNA 1: GCCTCCAGACTGCCTTCAGATTCAAGACGCAAAGGCGCGATTGACAGCGTAGAATGAAGG DNA 2: CCTTCATTCTACGCTGTCAATCGCGCCTTTGCGTCTTGAATCTGAAGGCAGTCTGGAGGC,-0.41 PBM z-score against 500 random probes
24,NRC3_random_hg19_463_o1 (dsDNA) DNA 1: GCCAGGGAGAGAGCCTTGCAAAGATGGAACAATCAGGCGATTGACAGCGTAGAATGAAGG DNA 2: CCTTCATTCTACGCTGTCAATCGCCTGATTGTTCCATCTTTGCAAGGCTCTCTCCCTGGC,-0.42 PBM z-score against 500 random probes
